Source: publication PMC9605868

Molecular target: AP-1σ1 (cells' own, or HA-AP1S1) (UniProt P61966)
Assay: anti-Flag IP, western blot for AP-1
Conditions: reference: wild type; sites S366

- binding against the reference: weaker
Substance: STING (from UniProt Q86WV6) S366A
